# Experimental data from FireProtDB (doi:10.1074/jbc.270.30.17712).
# Where “and” joins values, the source holds several entries; their conditions need not be identical. Equal values may be shown once.
# B1: Tryptophan synthase alpha chain wild type, P0A877 (protein)
# chain: MERYESLFAQLKERKEGAFVPFVTLGDPGIEQSLKIIDTLIEAGADALELGIPFSDPLADGPTIQNATLRAFAAGVTPAQCFEMLALIRQKHPTIPIGLLMYANLVFNKGIDEFYAQCEKVGVDSVLVADVPVEESAPFRQAALRHNVAPIFICPPNADDDLLRQIASYGRGYTYLLSRAGVTGAENRAALPLNHLVAKLKEYNAAPPLQGFGISAPDQVKAAIDAGAAGAISGSAIVKIIEQHINEPEKMLAALKVFVQPMKAATRS
# Settings: Escherichia coli (strain K12); pH 7.8; 23 °C; Urea; Absorbance; Potassium phosphate 10 mM; transition: 3; reversible: yes; whole UniProt chain shown
protein,measurement,value
B1,denaturant m value,2.5 kcal/mol/M and 1.4 kcal/mol/M
same,denaturant midpoint (higher = more stable),2.51 M and 3.73 M
same,unfolding free energy,6.4 kcal/mol and 5.2 kcal/mol
